Molecular target: protein phosphatase PP1 (endogenous), P36873
Assay: EGFP trap, immunoblotting, densitometric analysis
Conditions: chain shown with the change; non-synchronized HEK293T cells; three independent experiments; parent: est. 1.0; read off a plot

Chain of protein phosphatase PP1 (endogenous), P36873 (P36873 whole entry): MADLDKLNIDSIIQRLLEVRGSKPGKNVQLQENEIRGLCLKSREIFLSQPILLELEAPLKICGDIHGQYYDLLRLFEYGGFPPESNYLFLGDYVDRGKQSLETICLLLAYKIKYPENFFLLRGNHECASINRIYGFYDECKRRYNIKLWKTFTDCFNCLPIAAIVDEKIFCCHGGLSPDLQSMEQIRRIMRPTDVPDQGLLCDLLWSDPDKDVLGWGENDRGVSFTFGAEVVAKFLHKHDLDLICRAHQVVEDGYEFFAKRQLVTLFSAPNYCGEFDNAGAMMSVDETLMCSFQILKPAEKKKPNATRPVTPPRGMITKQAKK

Row | ratio to parent | Binder
1 | 0.19 | EGFP-tagged RepoMan-WT, Q69YH5 S400D; T412D; T419D (protein) MDANSKDKPPETKESAMNNAGNASFILGTGKIVTPQKHAELPPNPCTPDTFKSPLNFSTVTVEQLGITPESFVRNSAGKSSSYLKKCRRRSAVGARGSPETNHLIRFIARQQNIKNARKSPLAQDSPSQGSPALYRNVNTLRERISAFQSAFHSIKENEKMTGCLEFSEAGKESEMTDLTRKEGLSACQQSGFPAVLSSKRRRISYQRDSDENLTDAEGKVIGLQIFNIDTDRACAVETSVDLSEISSKLGSTQSGFLVEESLPLSELTETSNALKVADCVVGKGSSDAVSPDTFTAEVSSDAVPDVRSPATPACRRDLPTPKTFVLRSVLKKPSVKMCLESLQEHCNNLYDDDGTHPSLISNLPNCCKEKEAEDEENFEAPAFLNMRKRKRVTFGEDLDPEVFDESLPANDPLRKGGDPVCKKDFSGLSSLLLEQSPVPEPLPQPDFDDKGENLENIEPLQVSFAVLSSPNKSSISETLSGTDTFSSSNNHEKISSPKVGRITRTSNRRNQLVSVVEESVCNLLNTEVQPCKEKKINRRKSQETKCTKRALPKKSQVLKSCRKKKGKGKKSVQKSLYGERDIASKKPLLSPIPELPEVPEMTPSIPSIRRLGSGYFSSNGKLEEVKTPKNPVKRKDLLRHDPDLHMHQGYDKYDVSEFCSYIKSSSSLGNATSDEDPNTNIMNINENKNIPKAKNKSESENEPKAGTDSPVSCASVTEERVASDSPKPALTLQQGQEFSAGGQNAENLCQFFKISPDLNIKCERKDDFLGAAEGKLQCNRLMPNSQKDCHCLGDVLIENTKESKSQSEDLGRKPMESSSVVSCRDRKDRRRSMCYSDGRSLHLEKNGNHTPSSSVGSSVEISLENSELFKDLSDAIEQTFQRRNSETKVRRSTRLQKDLENEGLVWISLPLPSTSQKAKRRTICTFDSSGFESMSPIKETVSSRQKPQMAPPVSDPENSQGPAAGSSDEPGKRRKSFCISTLANTKATSQFKGYRRRSSLNGKGESSLTALERIEHNGERKQ
2 | 0.43 | EGFP-tagged RepoMan-WT, Q69YH5 T412D (protein) MDANSKDKPPETKESAMNNAGNASFILGTGKIVTPQKHAELPPNPCTPDTFKSPLNFSTVTVEQLGITPESFVRNSAGKSSSYLKKCRRRSAVGARGSPETNHLIRFIARQQNIKNARKSPLAQDSPSQGSPALYRNVNTLRERISAFQSAFHSIKENEKMTGCLEFSEAGKESEMTDLTRKEGLSACQQSGFPAVLSSKRRRISYQRDSDENLTDAEGKVIGLQIFNIDTDRACAVETSVDLSEISSKLGSTQSGFLVEESLPLSELTETSNALKVADCVVGKGSSDAVSPDTFTAEVSSDAVPDVRSPATPACRRDLPTPKTFVLRSVLKKPSVKMCLESLQEHCNNLYDDDGTHPSLISNLPNCCKEKEAEDEENFEAPAFLNMRKRKRVTFGEDLSPEVFDESLPANDPLRKGGTPVCKKDFSGLSSLLLEQSPVPEPLPQPDFDDKGENLENIEPLQVSFAVLSSPNKSSISETLSGTDTFSSSNNHEKISSPKVGRITRTSNRRNQLVSVVEESVCNLLNTEVQPCKEKKINRRKSQETKCTKRALPKKSQVLKSCRKKKGKGKKSVQKSLYGERDIASKKPLLSPIPELPEVPEMTPSIPSIRRLGSGYFSSNGKLEEVKTPKNPVKRKDLLRHDPDLHMHQGYDKYDVSEFCSYIKSSSSLGNATSDEDPNTNIMNINENKNIPKAKNKSESENEPKAGTDSPVSCASVTEERVASDSPKPALTLQQGQEFSAGGQNAENLCQFFKISPDLNIKCERKDDFLGAAEGKLQCNRLMPNSQKDCHCLGDVLIENTKESKSQSEDLGRKPMESSSVVSCRDRKDRRRSMCYSDGRSLHLEKNGNHTPSSSVGSSVEISLENSELFKDLSDAIEQTFQRRNSETKVRRSTRLQKDLENEGLVWISLPLPSTSQKAKRRTICTFDSSGFESMSPIKETVSSRQKPQMAPPVSDPENSQGPAAGSSDEPGKRRKSFCISTLANTKATSQFKGYRRRSSLNGKGESSLTALERIEHNGERKQ
